The values below come from patent US20230407373A1 (priority 2020, published 2023).

B1: MBNL2 (protein, UniProt Q5VZF2 1-373, looked up)
Muscleblind-like protein 2: MALNVAPVRDTKWLTLEVCRQFQRGTCSRSDEECKFAHPPKSCQVENGRVIACFDSLKGRCSRENCKYLHPPTHLKTQLEINGRNNLIQQKTAAAMLAQQMQFMFPGTPLHPVPTFPVGPAIGTNTAISFAPYLAPVTPGVGLVPTEILPTTPVIVPGSPPVTVPGSTATQKLLRTDKLEVCREFQRGNCARGETDCRFAHPADSTMIDTSDNTVTVCMDYIKGRCMREKCKYFHPPAHLQAKIKAAQHQANQAAVAAQAAAAAATVMAFPPGALHPLPKRQALEKSNGTSAVFNPSVLHYQQALTSAQLQQHAAFIPTGSVLCMTPATSIDNSEIISRNGMECQESALRITKHCYCTYYPVSSSIELPQTAC
B2: PABPN1 (protein, UniProt Q86U42 2-306, looked up)
Polyadenylate-binding protein …: AAAAAAAAAAGAAGGRGSGPGRRRHLVPGAGGEAGEGAPGGAGDYGNGLESEELEPEELLLEPEPEPEPEEEPPRPRAPPGAPGPGPGSGAPGSQEEEEEPGLVEGDPGDGAIEDPELEAIKARVREMEEEAEKLKELQNEVEKQMNMSPPPGNAGPVIMSIEEKMEADARSIYVGNVDYGATAEELEAHFHGCGSVNRVTILCDKFSGHPKGFAYIEFSDKESVRTSLALDESLFRGRQIKVIPKRTNRPGISTTDRGFPRARYRARTTNYNSSRSRFYSGFNSRPRGRVYRGRARATSWYSPY
B3: TRA2A (protein, UniProt Q13595 2-282, looked up)
Transformer-2 protein homolog …: SDVEENNFEGRESRSQSKSPTGTPARVKSESRSGSRSPSRVSKHSESHSRSRSKSRSRSRRHSHRRYTRSRSHSHSHRRRSRSRSYTPEYRRRRSRSHSPMSNRRRHTGSRANPDPNTCLGVFGLSLYTTERDLREVFSRYGPLSGVNVVYDQRTGRSRGFAFVYFERIDDSKEAMERANGMELDGRRIRVDYSITKRAHTPTPGIYMGRPTHSGGGGGGGGGGGGGGGGRRRDSYYDRGYDRGYDRYEDYDYRYRRRSPSPYYSRYRSRSRSRSYSPRRY
B4: PPP1CB (protein, UniProt P62140 2-327, looked up)
Serine/threonine-protein …: ADGELNVDSLITRLLEVRGCRPGKIVQMTEAEVRGLCIKSREIFLSQPILLELEAPLKICGDIHGQYTDLLRLFEYGGFPPEANYLFLGDYVDRGKQSLETICLLLAYKIKYPENFFLLRGNHECASINRIYGFYDECKRRFNIKLWKTFTDCFNCLPIAAIVDEKIFCCHGGLSPDLQSMEQIRRIMRPTDVPDTGLLCDLLWSDPDKDVQGWGENDRGVSFTFGADVVSKFLNRHDLDLICRAHQVVEDGYEFFAKRQLVTLFSAPNYCGEFDNAGGMMSVDETLMCSFQILKPSEKKAKYQYGGLNSGRPVTPPRTANPPKKR
B5: HNRNPA1L2 (protein, UniProt Q32P51 1-320, looked up)
Heterogeneous nuclear …: MSKSASPKEPEQLRKLFIGGLSFETTDESLRSHFEQWGTLTDCVVMRDPNTKRSRGFGFVTYATVEEVDAAMNTTPHKVDGRVVEPKRAVSREDSQRPGAHLTVKKIFVGGIKEDTEEHHLRDYFEQYGKIEVIEIMTDRGSGKKRGFAFVTFDDHDSVDKIVIQKYHTVKGHNCEVRKALPKQEMASASSSQRGRRGSGNFGGGRGDGFGGNDNFGRGGNFSGRGGFGGSCGGGGYGGSGDGYNGFGNDGSNFGGGGSYNDFGNYNNQSSNFGPMKGGNFGGRSSGPYGGGGQYFAKPQNQGGYGVSSSSSSYGSGRRF
B6: PA2G4 (protein, UniProt Q9UQ80 2-394, looked up)
Proliferation-associated …: SGEDEQQEQTIAEDLVVTKYKMGGDIANRVLRSLVEASSSGVSVLSLCEKGDAMIMEETGKIFKKEKEMKKGIAFPTSISVNNCVCHFSPLKSDQDYILKEGDLVKIDLGVHVDGFIANVAHTFVVDVAQGTQVTGRKADVIKAAHLCAEAALRLVKPGNQNTQVTEAWNKVAHSFNCTPIEGMLSHQLKQHVIDGEKTIIQNPTDQQKKDHEKAEFEVHEVYAVDVLVSSGEGKAKDAGQRTTIYKRDPSKQYGLKMKTSRAFFSEVERRFDAMPFTLRAFEDEKKARMGVVECAKHELLQPFNVLYEKEGEFVAQFKFTVLLMPNGPMRITSGPFEPDLYKSEMEVQDAELKALLQSSASRKTQKKKKKKASKTAENATSGETLEENEAGD
B7: PGK2 (protein, UniProt P07205 2-417, looked up)
Phosphoglycerate kinase 2: SLSKKLTLDKLDVRGKRVIMRVDFNVPMKKNQITNNQRIKASIPSIKYCLDNGAKAVVLMSHLGRPDGVPMPDKYSLAPVAVELKSLLGKDVLFLKDCVGAEVEKACANPAPGSVILLENLRFHVEEEGKGQDPSGKKIKAEPDKIEAFRASLSKLGDVYVNDAFGTAHRAHSSMVGVNLPHKASGFLMKKELDYFAKALENPVRPFLAILGGAKVADKIQLIKNMLDKVNEMIIGGGMAYTFLKVLNNMEIGASLFDEEGAKIVKDIMAKAQKNGVRITFPVDFVTGDKFDENAQVGKATVASGISPGWMGLDCGPESNKNHAQVVAQARLIVWNGPLGVFEWDAFAKGTKALMDEIVKATSKGCITVIGGGDTATCCAKWNTEDKVSHVSTGGGASLELLEGKILPGVEALSNM
B8: SRSF2 (protein, UniProt Q01130 2-221, looked up)
Serine/arginine-rich splicing …: SYGRPPPDVEGMTSLKVDNLTYRTSPDTLRRVFEKYGRVGDVYIPRDRYTKESRGFAFVRFHDKRDAEDAMDAMDGAVLDGRELRVQMARYGRPPDSHHSRRGPPPRRYGGGGYGRRSRSPRRRRRSRSRSRSRSRSRSRSRYSRSKSRSRTRSRSRSTSKSRSARRSKSKSSSVSRSRSRSRSRSRSRSPPPVSKRESKSRSRSKSPPKSPEEEGAVSS
B9: MYEF2 (protein, UniProt Q9P2K5 1-600, looked up)
Myelin expression factor 2: MADANKAEVPGATGGDSPHLQPAEPPGEPRREPHPAEAEKQQPQHSSSSNGVKMENDESAKEEKSDLKEKSTGSKKANRFHPYSKDKNSGAGEKKGPNRNRVFISNIPYDMKWQAIKDLMREKVGEVTYVELFKDAEGKSRGCGVVEFKDEEFVKKALETMNKYDLSGRPLNIKEDPDGENARRALQRTGGSFPGGHVPDMGSGLMNLPPSILNNPNIPPEVISNLQAGRLGSTIFVANLDFKVGWKKLKEVFSIAGTVKRADIKEDKDGKSRGMGTVTFEQAIEAVQAISMFNGQFLFDRPMHVKMDDKSVPHEEYRSHDGKTPQLPRGLGGIGMGLGPGGQPISASQLNIGGVMGNLGPGGMGMDGPGFGGMNRIGGGIGFGGLEAMNSMGGFGGVGRMGELYRGAMTSSMERDFGRGDIGINQGFGDSFGRLGSAMIGGFAGRIGSSNMGPVGSGISGGMGSMNSVTGGMGMGLDRMSSSFDRMGPGIGAILERSIDMDRGFLSGPMGSGMRERIGSKGNQIFVRNLPFDLTWQKLKEKFSQCGHVMFAEIKMENGKSKGCGTVRFDSPESAEKACRIMNGIKISGREIDVRLDRNA

One assay has as its system SARS-CoV-2 gRNA and sgRNAs. The assay is classed as binding. The following applies: Probe II capture; […]; LC-MS/MS LFQ.
B1: the “target (unweighted spectral count in RNP capture)” value is listed as 7.

Consider B2, for which the “target (unweighted spectral count in RNP capture)” value is given as 11.

For B3, the “target (unweighted spectral count in RNP capture)” value is recorded as 7.

For the molecule B4, the “target (unweighted spectral count in RNP capture)” value amounted to 24.

For B5, the “target (unweighted spectral count in RNP capture)” value is listed as 8.

Staying with this assay, now noted: […]; LC-MS/MS label-free quantification; probe pool not given.
Turning to B6, the “target (unweighted spectral count of the protein in the RNP capture experiment)” value is listed as 5.

B7: the “target (unweighted spectral count of the protein in the RNP capture experiment)” value worked out at 5.

B8: the “target (unweighted spectral count of the protein in the RNP capture experiment)” value was found to be 11.

Still in this assay, the particulars now being: no-probe control pull-down, used as background for Probe II.
For the molecule B1, the “background (unweighted spectral count in control)” value is 1.

On to B9, for which the “background (unweighted spectral count in control)” value came out at 1.

In the case of B2, the “background (unweighted spectral count in control)” value stood at 1.

In the case of B3, the “background (unweighted spectral count in control)” value is 1.

Consider B4, for which the “background (unweighted spectral count in control)” value came to 4.

Regarding B5, the “background (unweighted spectral count in control)” value came to 1.

The assay is the same for the next values; noted with them: protein background of the control (e.g. no-probe) experiment; […].
In the case of B6, the “back-ground (unweighted spectral count of the protein in the control experiment)” value (shortened to “back-ground”) turned out to be 1.

In the case of B7, the “back-ground” value was determined as 1.

B8: the “back-ground” value was found to be 2.

The subject of another assay is HCoV-OC43 gRNA and sgRNA. The assay is classed as binding. The following applies: 24 hpi; type n_24_v; tested against no-probe control; FDR<10%.
For B2, the “target (unweighted spectral count, OC43 Probe II capture)” value was found to be 5.

Still in this assay, the particulars now being: type n_48_v; 48 hpi; OC43 Probe II capture on infected cells.
In the case of B2, the “target (unweighted spectral count, OC43 Probe II)” value was 8.

Still in this assay, the particulars now being: type n_48_v; 48 hpi; no-probe control on infected cells.
For the molecule B2, the “background (unweighted spectral count, no-probe control)” value turned out to be 2.

In a further assay the test system is SARS-CoV-2 gRNA. The assay is classed as binding. The note with it: Probe I capture; […]; LC-MS/MS LFQ.
Take B7: the “target (unweighted spectral count in RNP capture)” value was determined as 5.

Still in this assay, the particulars now being: […]; LC-MS/MS; Probe I sample (first 199 lines of Table 2).
Take B1: the “target (unweighted spectral count of the protein in the RNP capture)” value turned out to be 7.

As for B9, the “target (unweighted spectral count of the protein in the RNP capture)” value was determined as 19.

Turning to B2, the “target (unweighted spectral count of the protein in the RNP capture)” value is on record as 12.

B6: the “target (unweighted spectral count of the protein in the RNP capture)” value was 7.

For B3, the “target (unweighted spectral count of the protein in the RNP capture)” value is on record as 6.

With B8, the “target (unweighted spectral count of the protein in the RNP capture)” value worked out at 12.

As to B4, the “target (unweighted spectral count of the protein in the RNP capture)” value came to 17.

Consider B5, for which the “target (unweighted spectral count of the protein in the RNP capture)” value is on record as 6.

Still in this assay, the particulars now being: no-probe control pull-down, used as background for Probe I.
As for B7, the “background (unweighted spectral count in control)” value worked out at 1.
